Consider one molecule from patent publication US12227570B2, “Anti-CEACAM6 antibodies and methods of use” (Singapore Health Services PTE LTD, priority 2016, dated 2025).

In one assay the target is T1, CEACAM6 (Homo sapiens, UniProt P40199).
T1 construct: 20 μg of PC-9 membrane protein extract was first denatured; endogenous in cells; host or cells: PC-9 cells
T1 sequence (P40199 35-320): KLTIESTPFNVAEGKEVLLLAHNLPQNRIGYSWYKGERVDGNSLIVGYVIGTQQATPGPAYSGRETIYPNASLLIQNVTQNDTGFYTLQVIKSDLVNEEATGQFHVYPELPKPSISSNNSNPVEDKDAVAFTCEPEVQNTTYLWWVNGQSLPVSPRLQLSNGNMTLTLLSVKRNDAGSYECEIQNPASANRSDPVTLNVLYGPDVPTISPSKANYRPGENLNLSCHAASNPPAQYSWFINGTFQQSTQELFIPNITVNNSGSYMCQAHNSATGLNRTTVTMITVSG
Description: Binding after siRNA knock down of CEACAM6. It is filed as cell-based. The following applies: PC-9 cells; Western blot and flow cytometry.

In assay [1] the test system is PC-9 Gefitinib resistant clones (CL75, CL86, CL131) and parental PC-9. The assay is described as follows: Flow cytometry binding on PC-9 and gefitinib resistant PC-9 clones. Type of assay: cell-based. The procedure:
(§1) Cells were harvested as single cell suspensions using trypsin. 1E5 cells were used per sample, and incubated with 100 μl of mAb culture supernatant for 30 min. Cells were then washed with 1% bovine serum albumin in PBS, and further incubated with 100 μl of goat anti-mouse antibody fluorescein isothiocyanate (FITC)-conjugated (1:500, DAKO, Denmark) for 15 min at 4° C. in the dark. Cells were again washed and resuspended in 200 μL of 1% BSA/PBS for analysis on Guava® easy Cyte 8HT Benchtop Flow Cytometer (Merck Millipore, USA). For interrogation of […] binding, cells were fixed with 4% PFA/PBS (Affymetrix, USA) at room temperature for 10 min, washed in PBS, and permeabilised with 0.1% triton/PBS for 5 min at room temperature, before proceeding with incubation with mAb supernatant/primary antibody. For staining with propidium iodide, PI was added to a final concentration of 5 μg/mL for 5 min just prior to analysis by the flow cytometer.

For a further assay, the system named is CL75 GR clone. The assay is described as follows: Mab-ZAP indirect saporin conjugate cell growth inhibition. It is filed as cell-based. The following applies: GR6A04 indirectly conjugated with saporin via anti-mouse antibody. The procedure: (§2) Cells were seeded into a black coated 96 well plate (Grenier Bio-one, UK) at a range of density from 1000-5000 cells per well (depending on the cell type used) and 90 μL per well. The plate was then incubated for 24 hours at 37° C. in humidified air with 5% CO2. After 24 hours, 10 μL of mAb or buffer was added to each well and the plate was again placed at 37° C. in humidified air with 5% CO2. 4 days after addition of mAb or buffer, 100 μL of CTG substrate (Promega, Wisconsin, USA) was added to each well. The plate was then left in the dark for 10 minutes, with vigorous shaking. The cell viability of the samples was then quantified using Tecan I-control (Tecan, Switzerland).

For another assay, the system named is PC-9. The description is as above. Type of assay: cell-based. The following applies: GR6A04 indirectly conjugated with saporin via anti-mouse antibody; PC-9 sensitive parental line. How it is done: as §2
Assay [2] deals with NSCLC lines, GR HCC827 clones, breast cancer lines, colorectal cancer lines. Description: Flow cytometry binding on other cancer cell lines. Type of assay: cell-based. The procedure: as §1
Another assay has as its system normal tissues. The assay is described as follows: IHC staining on FFPE normal tissue microarray (MNO961). How it is done:
TMA slides containing FFPE tissues were first heated in an oven at 60° C. for 30 min to remove any solvents. The slides were then dewaxed and re-hydrated through sequential immersion in Histoclear (2×), 100% ethanol (2×), 95% ethanol, 70% ethanol, and finally in DI water.
Heat-induced epitope retrieval was done in a solution containing 10 mM Tris Base, 1 mM EDTA, 0.05% Tween 20 at pH 9.0, and heated at 95° C. for 20 min. The container with the antigen retrieval solution and slides was then removed and allowed to cool to room temperature for an additional 20 min. The slides were then washed in DI water. Endogenous peroxidase activity was then blocked by incubation of the slides with 3% H2O2 in PBS for 30 min at room temperature. The slides were washed in DI water, followed by a blocking step with 10% normal goat serum in PBS for 30 min.
The slides were then incubated with GR6A04 at 5 μg/mL in blocking solution overnight at 4° C. The slides were then washed an incubated with a polymer-based anti-mouse secondary antibody conjugated with HRP (DAKO, USA) for 30 min at room temperature, and developed with the recommended DAB chromogen substrate solution for 2 min, and counterstained with Gill's Hematoxylin solution.
The stained slides were subsequently dehydrated through immersion in 50% ethanol, 70% ethanol, 90% ethanol, 100% ethanol (2×) and Histoclear (2×), before mounting with a glass cover slip. The slides were then imaged with the Zeiss AxioScan Digital Slide Scanner.

In a further assay the test system is PC-9 cells. The assay is described as follows: Antibody internalisation by immunofluorescence. Type of assay: cell-based. The following applies: 37° C.; a proportion of cells not internalised at 120 min.

B1: GR6A04: mouse IgG1, κ anti-CEACAM6 monoclonal antibody, VH SEQ ID NO:1, VL SEQ ID NO:2, binds N-glycosylated CEACAM6 (antibody, V domains shown)
VH: SGPELVKPGASVKMSCKASGNTFTSYVMHWVKQKPGQGLEWIGYINPYNDGTKYNEKFKGKATLTSDKSSSTAYMELSSLTSEDSAVYYCARSTARATPYFYAMDYWGQGTSVTVSS
VL: DILMTQSPSSLAVTAGEKVTMRCKSSQSLLWSVNQNSYLSWYQLKQGQPPKLLLYGASIRESWVPDRFTGSGSGTDFTLTISNVHVEDLAVYYCQHNHGSFLPYTFGGGTKLEIK
modifications: Isolated antibody fragment
With B1, the “binding after knockdown of CEACAM6 expression” value with CEACAM6 is “decrease”. Besides, the binding result in assay [1] (Gefitinib sensitive parental PC-9 and another GR PC-9 clone not used in immunisation) is recorded as “similarly high binding”. For the same molecule, the “percentage positive-binding (reactivity)” value in assay [1] (three PC-9 Gefitinib resistant clones used for immunisation, FL-1 gated at 2% on secondary-only control) was greater than 50%. Further, the cell growth inhibited with CL75 GR clone is 28%. The cell growth inhibited in the assay on PC-9 was found to be 43%. For the same molecule, in assay [2], the “GR HCC827 clones with binding” value is 2 of 6, the “breast cancer lines with reactivity” value is 3 of 13 and the “colorectal cancer lines with reactivity” value was 1 of 2. In assay [2] (A549 and Calu-3 positive), the “NSCLC lines with partial binding” value is listed as 2 of 4. In addition, in the assay with normal tissues (MNO961), the “colon cores weakly positive (2+)” value is 2 of 3, the “normal tissue cores stained positive” value is reported as 3 and the “prostate cores weakly positive (2+)” value was 1 of 3. The “normal tissue cores with no staining” value with normal tissues (MNO961, 35 anatomical sites) is listed as 93 of the 96. Further, the time to internalise in the assay on PC-9 cells is recorded as no more than 120 min.
